Data: patent US20250041410A1 (Y MABS THERAPEUTICS, published 2025)

Biological target: the molecule itself
Experiment: mass photometry (Refeyn) after dilution in PBS and 60 min at 37 C; self-association of the chain into dimer and tetramer
Method: For this example, a Refeyn Mass photometer (Refeyn Ltd, Oxford UK) was used according to the manufacturer's instructions, with the following settings:
The GD2-SADA construct was diluted in PBS, and incubated for 60 minutes at 37° C. before measuring the size distribution. Following dilutions were made: 150 nM, 100 nM, 50 nM, 10 nM, 5 nM, 1 nM and 100 PM and subjected to Mass photometry using the Refeyn Mass photometer.

B1: GD2-SADA complex (other)
chain: EIVMTQTPATLSVSAGERVTITCKASQSVSNDVTWYQQKPGQAPRLLIYSASNRYSGVPARFSGSGYGTEFTFTISSVQSEDFAVYFCQQDYSSFGCGTKLEIKRGGGGSGGGGSGGGGSGGGGSGGGGSGGGGSQVQLVESGPGVVQPGRSLRISCAVSGFSVTNYGVHWVRQPPGKCLEWLGVIWAGGITNYNSAFMSRLTISKDNSKNTVYLQMNSLRAEDTAMYYCASRGGHYGYALDYWGQGTLVTVSSGGGGSGGGGSGGGGSGGGGSHVQLVESGGGLVQPGGSLRLSCAASGFSLTDYGVHWVRQAPGKGLEWLGVIWSGGGTAYNTALISRFTISRDNSKNTLYLQMNSLRAEDTAVYYCARRGSYPYNYFDAWGCGTLVTVSSGGGGSGGGGSGGGGSGGGGSGGGGSGGGGSQAVVTQEPSLTVSPGGTVTLTCGSSTGAVTASNYANWVQQKPGQCPRGLIGGHNNRPPGVPARFSGSLLGGKAALTLLGAQPEDEAEYYCALWYSDHWVIGGGTKLTVLGTPLGDTTHTSGKPLDGEYFTLQIRGRERFEMFRELNEALELKDAQAGKEPGGSGGA
notes: A single polypeptide: anti-GD2 scFv, humanized C825 (anti-DOTA) scFv and the p53 tetramerization (SADA) domain; It is written here as one chain that associates with itself; In the mass photometry assay it was a concentration-dependent mixture of monomer, dimer, tetramer and higher multimers; also called GD2-SADA construct; GD2-SADA conjugate
B1: binds.
